Laboratory results as given in PMC2811000.

Experiments:
[1] = biological target: acrylodan-labeled C-terminal catalytic kinase/phosphatase domain of PNKP (human); test: other fluorescence titration
[2] = biological target: acrylodan-labeled FHA domain of PNKP (human) (UniProt Q96T60); test: other fluorescence titration

CK2-phosphorylated XRCC1 (from UniProt P18887 1-633) (natural protein)
AC fluorescence quenching [1]: 8% | AC fluorescence quenching [2]: 50% | Kd [2]: 0.0035 µM | stoichiometry N [2]: 1.08

non-phosphorylated XRCC1 (from UniProt P18887 1-633) (natural protein)
Kd [1]: 0.043 µM
